Measurements taken from IntAct's records for PubMed 17006543.

B1: Beta-adrenergic receptor kinase 1 (Homo sapiens), P25098 (parent)
chain: MADLEAVLADVSYLMAMEKSKATPAARASKKILLPEPSIRSVMQKYLEDRGEVTFEKIFSQKLGYLLFRDFCLNHLEEARPLVEFYEEIKKYEKLETEEERVARSREIFDSYIMKELLACSHPFSKSATEHVQGHLGKKQVPPDLFQPYIEEICQNLRGDVFQKFIESDKFTRFCQWKNVELNIHLTMNDFSVHRIIGRGGFGEVYGCRKADTGKMYAMKCLDKKRIKMKQGETLALNERIMLSLVSTGDCPFIVCMSYAFHTPDKLSFILDLMNGGDLHYHLSQHGVFSEADMRFYAAEIILGLEHMHNRFVVYRDLKPANILLDEHGHVRISDLGLACDFSKKKPHASVGTHGYMAPEVLQKGVAYDSSADWFSLGCMLFKLLRGHSPFRQHKTKDKHEIDRMTLTMAVELPDSFSPELRSLLEGLLQRDVNRRLGCLGRGAQEVKESPFFRSLDWQMVFLQKYPPPLIPPRGEVNAADAFDIGSFDEEDTKGIKLLDSDQELYRNFPLTISERWQQEVAETVFDTINAETDRLEARKKAKNKQLGHEEDYALGKDCIMHGYMSKMGNPFLTQWQRRYFYLFPNRLEWRGEGEAPQSLLTMEEIQSVEETQIKERKCLLLKIRGGKQFILQCDSDPELVQWKKELRDAYREAQQLVQRVPKMKNKPRSPVVELSKVPLVQRGSANGL

Variants of: B1
Settings: with ubc_human UBC

Row | effect of a mutation on the interaction | Variant
1 | decreasing interaction | K30R
2 | decreasing interaction | K31R
3 | decreasing interaction | K19R
